Assay results: US6410255B1, “Optical probes and assays” (priority 1999, dated 2002)
Where no end group is shown, it is not given here. [ ]: non-standard residue; d: D form. pS = N[C@@H](COP(=O)(O)O)C(=O)O

Key:
v-Abl kinase = biological target: T1, v-Abl kinase (Abelson murine leukemia virus, UniProt P00521); experiment: v-Abl kinase phosphorylation of optical probe, fluorescence readout after chymotrypsin; format: biochemical
T1 construct: purchased Calbiochem

chymotrypsin [1] = biological target: T2, chymotrypsin (Bos taurus, UniProt P00766); experiment: Chymotrypsin cleavage of phosphorylated and non-phosphorylated tyrosine kinase optical probes; format: biochemical, bovine; parameters: purchased Calbiochem 230832
chymotrypsin [2] = biological target: T2, chymotrypsin; experiment: Chymotrypsin cleavage of optical probe with or without casein kinase 1 phosphorylation; format: biochemical
Excerpt: To measure casein kinase 1 activity, an optical probe was designed as described above. In this case, the kinase substrate was designed so that the point of phosphorylation was located at the P′2 position (underlined in SEQ. I.D. NO: 17 below) with respect to the scissile bond cleaved by chymotrypsin, which enables the creation of a recognition motif suitable for casein kinase 1. A substrate peptide ([…], SEQ. ID. NO: 17) was synthesized and labeled with fluorescein isothiocyanate at the N-terminus and 7-hydroxycoumarin-3-carboxamide at the C-terminus as described in Example 1.
Samples of phosphorylated and non-phosphorylated optical probes were prepared and tested as described in Example 1. In this case, complete phosphorylation of the optical probe (1 μM) was obtained after room temperature incubation for 15 to 30 minutes in the presence of 500 Units of casein kinase 1 (New England BioLabs) in 50 mM Tris-Cl, pH 7.5, 10 mM MgCl2, 5 mM DTT, and 200 μM ATP.
To determine the relative proteolytic sensitivity of phosphorylated and non-phosphorylated optical probes, samples of both were incubated with various concentrations of chymotrypsin and the cleavage monitored by measuring the 460/530 emission ratio as described in Example 1.

[3] = biological target: protein phosphatase I (PPI) (Homo sapiens, UniProt P62136); experiment: Protein phosphatase I dephosphorylation of optical probe; format: biochemical
Sequence of protein phosphatase I (PPI) (P62136 whole entry): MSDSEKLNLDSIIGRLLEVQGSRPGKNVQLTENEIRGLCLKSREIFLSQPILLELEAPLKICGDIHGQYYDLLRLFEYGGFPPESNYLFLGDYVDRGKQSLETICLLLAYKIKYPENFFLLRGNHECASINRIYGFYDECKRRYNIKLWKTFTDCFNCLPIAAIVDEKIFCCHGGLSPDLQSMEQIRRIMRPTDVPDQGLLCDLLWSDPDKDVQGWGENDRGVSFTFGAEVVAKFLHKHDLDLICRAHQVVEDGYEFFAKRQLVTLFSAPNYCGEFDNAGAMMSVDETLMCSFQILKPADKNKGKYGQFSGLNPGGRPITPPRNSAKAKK
Procedure: To determine if the optical probes could be used to detect serine/threonine phosphatase activities, samples of the casein kinase 1 specific phosphorylated optical probes were prepared and treated with various serine/threonine protein phosphatases. To do this, the casein kinase 1 optical probe ([…], SEQ. ID. NO: 17) (100 μM) was phosphorylated to completion with CKI (2000 units) in a 100 μL reaction containing 200 μM ATP for 5 hours at 30° C. A mock kinase reaction was performed which contained no ATP for preparation of control, non-phosphorylated optical probes. The resistance of the phosphorylated optical probe to chymotrypsin cleavage (data not shown) confirmed complete phosphorylation of the CKI-treated optical probe. Phosphorylated and non-phosphorylated samples of the optical probe (2 μM) were incubated in a 50 μL volume with or without 1 unit of the serine/threonine phosphatase protein phosphatase I (PPI) for 2 hours at 30° C. in a buffer consisting of 50 mM Tris-Cl, pH 7.0, 0.1 mM EDTA, 5 mM DTT, 0.01% Brij-35, and 1 mM MnCl2. The reactions were diluted to 100 μL with 50 mM HEPES, pH 7.5, incubated with chymotrypsin (0.2 μM) for 1 hour at room temperature, and fluorescence values were measured on the Cytofluor as described above. Before chymotrypsin addition all reactions had similar 460/530 ratios of about 1.2.

PP2A = PP2A (Homo sapiens, UniProt P67775); experiment: PP2A inhibitor assay with optical probe; format: biochemical; details: no inhibitor
Sequence of PP2A (P67775 whole entry): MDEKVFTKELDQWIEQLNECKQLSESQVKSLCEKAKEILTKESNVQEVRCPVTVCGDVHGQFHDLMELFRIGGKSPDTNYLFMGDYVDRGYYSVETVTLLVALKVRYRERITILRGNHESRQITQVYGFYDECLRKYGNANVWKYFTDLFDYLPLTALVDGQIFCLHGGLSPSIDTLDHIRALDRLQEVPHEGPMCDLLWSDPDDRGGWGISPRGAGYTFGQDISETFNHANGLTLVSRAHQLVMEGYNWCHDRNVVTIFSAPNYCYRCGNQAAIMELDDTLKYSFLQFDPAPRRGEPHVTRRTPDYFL
Procedure: To determine if the optical probe phosphatase assay could detect inhibitors of PP2A, the phosphatase assay was performed in the presence or absence of 100 nM microcystin-LR. PP2A assays were set up as described above, and were incubated at 30 C for 2 hours. Reactions were diluted to 100 μL with 50 mM HEPES, pH 7.5 followed by the addition of chymotrypsin to 0.2 μM. Fluorescence values were measured on the Cytofluor after a 1.5 hour incubation at room temperature. As described above, treatment of the phosphorylated optical probe (SEQ. ID. NO: 23) with PP2A followed by chymotrypsin gave a final 460/530 ratio of 8.8±0.1. […] Thus, the optical probe based phosphatase assay can detect inhibitors of PP2A activity.

PP1 = PP1 (Homo sapiens, UniProt P62136); experiment: PP1 inhibitor assay with optical probe; format: biochemical; details: no inhibitor; chymotrypsin 0.2 μM, 2 hour
Sequence of PP1 (P62136 whole entry): as the sequence (P62136 whole entry) above
Procedure: To determine if the optical probe protein phosphatase assay could detect inhibitors of PP1, the phosphatase assay was performed in the presence or absence of 1 μM microcystin-LR, a potent inhibitor of PP1. Phosphatase assays were set up as described above except the phosphatase was allowed to pre-incubate with microcystin-LR for 10 minutes before the addition of phosphorylated or non-phosphorylated optical probes (SEQ. ID. NO: 23). PP1 reactions were incubated at 30 C for 1 hour and then diluted to 100 μL in 50 mM HEPES, pH 7.5 followed by the addition of chymotrypsin to 0.2 μM. Fluorescence values were measured on the Cytofluor after a 2 hour incubation at room temperature as described above. After treatment of the phosphorylated optical probe with PP1 followed by chymotrypsin, the 460/530 ratio was 13.2±0.2. […] Thus, the present invention could be used to detect inhibitors of PP1 activity.

[4] = biological target: protein phosphatase 2A (PP2A) (Homo sapiens, UniProt P67775); experiment: Protein phosphatase 2A dephosphorylation of optical probe; format: biochemical; details: 1.5 hour chymotrypsin incubation
Sequence of protein phosphatase 2A (PP2A) (P67775 whole entry): as the sequence (P67775 whole entry) above
Procedure: The optical probes were also evaluated to determine if they could be used to measure protein phosphatase 2A (PP2A) activity. Phosphorylated and non-phosphorylated samples of the CKI optical probes ([…]) were prepared and incubated with 0.03 units of PP2A as described above, except MnCl2 was not included. After dilution and addition of chymotrypsin as described above, fluorescence values were measured using a 96 well plate reader (Cytofluor). After a 1.5 hour chymotrypsin incubation, the 460/530 emission ratio of the phosphorylated optical probe was 1.8±0.2 (Table 18).

chymotrypsin [5] = biological target: T2, chymotrypsin; experiment: Chymotrypsin cleavage of optical probe with or without ERK phosphorylation; format: biochemical; details: for 460/530 Emission Ratio, Negative Control (No Active Kinase) / 460/530 Emission Ratio, Positive Control (Active Kinase): 4 nM chymotrypsin
Procedure: This substrate (100 μM) was phosphorylated by incubation at 30 C for 3 hours in a 100 μL reaction containing 500 ng ERK (Biomol) and 500 μM ATP in a buffer consisting of 50 mM Tris-Cl, pH 7.5, 10 mM MgCl2, 1 mM EGTA, 2 mM DTT, and 0.01% Brij-35. To test the proteolytic sensitivity of phosphorylated and non-phosphorylated samples, 2 μL of the mock (no kinase) or kinase reaction was diluted to 100 μL in a buffer containing 50 mM HEPES, pH 7.5, 10 mM CaCl2, and 0.01% Brij-35, and incubated with chymotrypsin at a concentration of 4 nM. Cleavage reactions were monitored on the Cytofluor for 1 hr. […] The maximum fold difference in 460/530 ratio was about 15.2 and occurred after 30 minutes of cleavage.

T1 sequence (P00521 whole entry): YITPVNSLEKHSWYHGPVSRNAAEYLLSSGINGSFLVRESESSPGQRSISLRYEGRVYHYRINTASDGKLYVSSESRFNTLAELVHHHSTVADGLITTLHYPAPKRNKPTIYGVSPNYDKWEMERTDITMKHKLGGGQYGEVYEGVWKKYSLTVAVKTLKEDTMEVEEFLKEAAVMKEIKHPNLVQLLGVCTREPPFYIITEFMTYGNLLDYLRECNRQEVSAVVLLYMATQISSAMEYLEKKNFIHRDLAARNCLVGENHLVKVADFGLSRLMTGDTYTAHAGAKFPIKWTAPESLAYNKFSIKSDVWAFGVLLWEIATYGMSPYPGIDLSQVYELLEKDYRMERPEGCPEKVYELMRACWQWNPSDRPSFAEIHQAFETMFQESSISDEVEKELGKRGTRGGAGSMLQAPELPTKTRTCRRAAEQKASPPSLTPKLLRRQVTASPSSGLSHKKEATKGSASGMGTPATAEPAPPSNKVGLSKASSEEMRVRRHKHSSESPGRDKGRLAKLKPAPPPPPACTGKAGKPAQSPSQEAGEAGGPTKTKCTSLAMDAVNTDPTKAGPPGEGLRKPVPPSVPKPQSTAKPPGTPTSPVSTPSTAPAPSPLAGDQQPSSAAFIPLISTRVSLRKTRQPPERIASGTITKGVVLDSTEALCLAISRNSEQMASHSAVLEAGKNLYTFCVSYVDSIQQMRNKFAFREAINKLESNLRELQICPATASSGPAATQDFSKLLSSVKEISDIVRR

Sequence: AEAIYAAPL [abl substrate]
- turnover of the optical probe by v-Abl (v-Abl kinase): 9.5 s⁻¹
- Km (v-Abl kinase; read-out: apparent Km for the substrate): 40 µM
- difference in emission ratios of phosphorylated (non-cleaved) and non-phosphorylated (cleaved) substrate (chymotrypsin [1]): 30 fold

Sequence: GDQDYLSLDK (GDQDYL[pS]LDK; also: FITC and hydroxycoumarin carboxamide labels, places not given here) [casein kinase 1 optical probe, peptide labeled with fluorescein isothiocyanate and 7-hydroxycoumarin-3-carboxamide; casein kinase 1 substrate]
- 460/530 Emission Ratio, Negative Control (No Active Kinase) (chymotrypsin [2]; chymotrypsin 0.04 μM): 3.0
- 460/530 Emission Ratio, Positive Control (Active Kinase Only) (chymotrypsin [2]; chymotrypsin 0.04 μM): 1.2
- Fold difference in ratios (chymotrypsin [2]; chymotrypsin 0.04 μM): 2.5
- 460/530 Emission Ratio, Negative Control (No Active Kinase) (chymotrypsin [2]; chymotrypsin 0.1 μM): 6.6
- 460/530 Emission Ratio, Positive Control (Active Kinase Only) (chymotrypsin [2]; chymotrypsin 0.1 μM): 1.4
- Fold difference in ratios (chymotrypsin [2]; chymotrypsin 0.1 μM): 4.7
- 460/530 Emission Ratio, Negative Control (No Active Kinase) (chymotrypsin [2]; chymotrypsin 0.2 μM): 10.9
- 460/530 Emission Ratio, Positive Control (Active Kinase Only) (chymotrypsin [2]; chymotrypsin 0.2 μM): 1.7
- Fold difference in ratios (chymotrypsin [2]; chymotrypsin 0.2 μM): 6.4
- 460/530 Emission Ratio, Negative Control (No Active Kinase) (chymotrypsin [2]; chymotrypsin 0.3 μM): 12.3
- 460/530 Emission Ratio, Positive Control (Active Kinase Only) (chymotrypsin [2]; chymotrypsin 0.3 μM): 1.9
- Fold difference in ratios (chymotrypsin [2]; chymotrypsin 0.3 μM): 6.5
- 460/530 Emission Ratio, Negative Control (No Active Kinase) (chymotrypsin [2]; chymotrypsin 0.4 μM): 14.3
- 460/530 Emission Ratio, Positive Control (Active Kinase Only) (chymotrypsin [2]; chymotrypsin 0.4 μM): 2.3
- Fold difference in ratios (chymotrypsin [2]; chymotrypsin 0.4 μM): 6.2
- 460/530 Emission Ratio, Negative Control (No Active Kinase) (chymotrypsin [2]; chymotrypsin 1.0 μM): 15.4
- 460/530 Emission Ratio, Positive Control (Active Kinase Only) (chymotrypsin [2]; chymotrypsin 1.0 μM): 3.8
- Fold difference in ratios (chymotrypsin [2]; chymotrypsin 1.0 μM): 4.1
- 460/530 Emission Ratio, Negative Control (No Active Kinase) (chymotrypsin [2]; chymotrypsin 2.0 μM): 15.6
- 460/530 Emission Ratio, Positive Control (Active Kinase Only) (chymotrypsin [2]; chymotrypsin 2.0 μM): 6.0
- Fold difference in ratios (chymotrypsin [2]; chymotrypsin 2.0 μM): 2.6
- 460/530 Emission Ratio After Chymotrypsin, Phosphorylated Control + Phosphatase (PP1) ([3]; 1 unit PPI, 2 hours at 30° C., chymotrypsin 0.2 μM, 1 hour): 10.0
- 460/530 ratio before chymotrypsin addition ([3]; all reactions): about 1.2
- 460/530 Emission ratio After Chymotrypsin, Non-phosphorylated Control ([3]; chymotrypsin 0.2 μM, 1 hour): 9.8
- 460/530 Emission ratio After Chymotrypsin, Phosphorylated Control ([3]; chymotrypsin 0.2 μM, 1 hour): 2.0
- 460/530 ratio Before Chymotrypsin, Non-phosphorylate Optical probe + PP2A (PP2A): 1.4 ± 0.0
- 460/530 ratio Before Chymotrypsin, Phosphorylated Optical probe + PP2A (PP2A): 1.3 ± 0.0
- 460/530 ratio After Chymotrypsin, Non-phosphorylate Optical probe + PP2A (PP2A; chymotrypsin 0.2 μM, 1.5 hour): 11.1 ± 0.1
- 460/530 ratio After Chymotrypsin, Phosphorylated Optical probe + PP2A (PP2A; chymotrypsin 0.2 μM, 1.5 hour): 8.8 ± 0.1
- 460/530 ratio After Chymotrypsin, Non-phosphorylate Optical probe + PP1 (PP1): 13.2 ± 0.1
- 460/530 ratio After Chymotrypsin, Phosphorylated Optical probe + PP1 (PP1): 13.2 ± 0.2
- 460/530 Emission ratio After Chymotrypsin, Phosphorylated Control + Phosphatase (PP2A) ([4]; 0.03 units PP2A): 8.8 ± 0.1
- 460/530 Emission ratio After Chymotrypsin, Non-phosphorylated Control [4]: 11.0 ± 0.1
- 460/530 Emission ratio After Chymotrypsin, Phosphorylated Control [4]: 1.8 ± 0.2

Sequence: VAPFSPGGRAK [optical probe designed as a substrate for extracellular signal-regulated kinase (ERK)]
- 460/530 Emission Ratio, Negative Control (No Active Kinase) (chymotrypsin [5]; time of cleavage 0 min): 0.28
- 460/530 Emission Ratio, Positive Control (Active Kinase) (chymotrypsin [5]; time of cleavage 0 min): 0.33
- 460/530 Emission Ratio, Negative Control (No Active Kinase) (chymotrypsin [5]; time of cleavage 10 min): 4.17
- 460/530 Emission Ratio, Positive Control (Active Kinase) (chymotrypsin [5]; time of cleavage 10 min): 0.44
- 460/530 Emission Ratio, Negative Control (No Active Kinase) (chymotrypsin [5]; time of cleavage 20 min): 7.56
- 460/530 Emission Ratio, Positive Control (Active Kinase) (chymotrypsin [5]; time of cleavage 20 min): 0.56
- 460/530 Emission Ratio, Negative Control (No Active Kinase) (chymotrypsin [5]; time of cleavage 30 min): 10.03
- 460/530 Emission Ratio, Positive Control (Active Kinase) (chymotrypsin [5]; time of cleavage 30 min): 0.66
- 460/530 Emission Ratio, Negative Control (No Active Kinase) (chymotrypsin [5]; time of cleavage 40 min): 11.71
- 460/530 Emission Ratio, Positive Control (Active Kinase) (chymotrypsin [5]; time of cleavage 40 min): 0.78
- 460/530 Emission Ratio, Negative Control (No Active Kinase) (chymotrypsin [5]; time of cleavage 50 min): 12.73
- 460/530 Emission Ratio, Positive Control (Active Kinase) (chymotrypsin [5]; time of cleavage 50 min): 0.89
- 460/530 Emission Ratio, Negative Control (No Active Kinase) (chymotrypsin [5]; time of cleavage 60 min): 13.40
- 460/530 Emission Ratio, Positive Control (Active Kinase) (chymotrypsin [5]; time of cleavage 60 min): 1.00
- Fold difference in ratios (chymotrypsin [5]; time of cleavage 0 min): 0.85
- Fold difference in ratios (chymotrypsin [5]; time of cleavage 10 min): 9.45
- Fold difference in ratios (chymotrypsin [5]; time of cleavage 20 min): 13.55
- Fold difference in ratios (chymotrypsin [5]; time of cleavage 30 min): 15.16
- Fold difference in ratios (chymotrypsin [5]; time of cleavage 40 min): 14.99
- Fold difference in ratios (chymotrypsin [5]; time of cleavage 50 min): 14.34
- Fold difference in ratios (chymotrypsin [5]; time of cleavage 60 min): 13.36
